Measured values as given in article PMC7846482 (The Journal of Biological Chemistry, 2021).

Target: T1, SΔTM deglycosylated by PNGase F (trimeric spike protein without transmembrane domain) (SARS-CoV-2 Wuhan-Hu-1, UniProt P0DTC2, stabilised, deglycosylated by PNGase F)
T1 construct: also called nonglycosylated SΔTM; deglycosylated spike protein
Test: western blotting
Conditions: both partners purified

B1: mouse anti-SARS-CoV-2 spike monoclonal antibody clone R31 (antibody, V domains shown)
VH: QVQLQQSGAELVRPGTSVKISCKASYTFTNYWLAWVKQRPGHGLEWIGDIYPGGAYTNFNEKFKGKATLTADTSSSTAYMQLSSLTSEDSAVYFCARDGHYGYAMDYWGQGTSVTVSS
VL: DIVMTQAAFSNPVTLGTSASISCRSSKSLLHSNGITYLYWYLQKPGQSPQLLIYQMSDLASGVPDRFSSSGSGTDFTLRISRVEAEDVGVYYCAQNLELPRTFGGGIKLEIK
Question: Does B1 bind?
Answer: binds
